Results published in US20070105771A1.

Experiments:
Assay in all cases: peptide microarray
[1] = target: T1, human CD26-derived 13 mer peptide 13 (human)
T1 sequence (peptide): QENNILVFNAEYG

[2] = target: T2, human CD26-derived 13 mer peptide 121 (human)
T2 sequence (peptide): TAPASMLIGDHYL

[3] = target: T3, human CD26-derived 13 mer peptide 125 (human)
T3 sequence (peptide): GDHYLCDVTWATQ

[4] = target: T4, human CD26-derived 13 mer peptide 16 (human)
T4 sequence (peptide): VFNAEYGNSSVFL

[5] = target: T5, human CD26-derived 13 mer peptide 69 (human)
T5 sequence (peptide): RITWTGKEDIIYN

[6] = target: T6, human CD26-derived 13 mer peptide 29 (human)
T6 sequence (peptide): DYSISPDGQFILL

[7] = target: T7, human CD26-derived 13 mer peptide 31 (human)
T7 sequence (peptide): SPDGQFILLEYNY

[8] = target: T8, human CD26-derived 13 mer peptide 91 (human)
T8 sequence (peptide): FNDTEVPLIEYSF

B1: rhuMAb 411 (antibody, human IgG1, kappa, V domains shown)
VH: EVQLVESGAGVKQPGGTLRLTCTASGFSLTTYGVHWVRQAPGKGLEWVGVIWGDGRTDYDAAFMSRVTISKDTSKSTVYLQMNSLRAEDTAVYYCMRNRHDWFDYWGQGTTVTVSS
VL: DILLTQSPSSLSATPGERATITCRASQGIRNNLNWYQQKPGQAPRLLIYYSSNLQSGVPSRFSGSGSGTDFTLTISRLQPEDVAAYYCQQSIKLPFTFGSGTKVEIKR
Question: For B1, which Mean Signal Value [1] is on record?
Answer: 1.94

Question: What about the Mean Signal Value [2] of the same binder?
Answer: 2.08

Question: And the Mean Signal Value [3]?
Answer: 1.8

Question: And the Mean Signal Value [4]?
Answer: 1.92

Question: What about the Mean Signal Value [5] of the same binder?
Answer: 2.45

Question: What about the Mean Signal Value [6] of the same binder?
Answer: 2.16

Question: What about the Mean Signal Value [7] of the same binder?
Answer: 2.33

Question: And the Mean Signal Value [8]?
Answer: 2.3
